This data set deals with T1, AcTPase4xOs (enhanced, rice codon-optimized Ac transposase with SV40 NLS) (Zea mays (engineered)) (UniProt P08770).
T1 sequence (P08770 whole entry, looked up): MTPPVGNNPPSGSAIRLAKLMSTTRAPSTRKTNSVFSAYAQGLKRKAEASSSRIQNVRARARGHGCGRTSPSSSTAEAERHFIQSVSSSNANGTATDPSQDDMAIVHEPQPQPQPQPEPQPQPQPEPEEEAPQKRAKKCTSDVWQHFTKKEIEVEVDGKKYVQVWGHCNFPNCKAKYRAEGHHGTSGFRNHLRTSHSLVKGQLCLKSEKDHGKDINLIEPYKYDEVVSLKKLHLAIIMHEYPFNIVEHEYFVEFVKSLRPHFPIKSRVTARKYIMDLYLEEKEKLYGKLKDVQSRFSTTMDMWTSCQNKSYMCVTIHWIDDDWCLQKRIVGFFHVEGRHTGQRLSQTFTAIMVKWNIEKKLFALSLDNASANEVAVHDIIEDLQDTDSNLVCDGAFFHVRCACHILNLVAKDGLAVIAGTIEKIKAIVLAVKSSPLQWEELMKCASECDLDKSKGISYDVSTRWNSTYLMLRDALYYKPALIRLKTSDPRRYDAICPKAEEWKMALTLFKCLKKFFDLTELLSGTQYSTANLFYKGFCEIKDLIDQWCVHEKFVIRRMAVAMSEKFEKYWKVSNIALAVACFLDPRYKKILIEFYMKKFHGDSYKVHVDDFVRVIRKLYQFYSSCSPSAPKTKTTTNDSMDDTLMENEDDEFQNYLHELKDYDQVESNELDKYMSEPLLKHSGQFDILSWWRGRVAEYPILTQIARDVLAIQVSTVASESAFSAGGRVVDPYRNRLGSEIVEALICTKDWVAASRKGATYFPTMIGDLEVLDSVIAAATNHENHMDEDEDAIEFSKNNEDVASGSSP
The experiment in a line: cell_activity. Conditions: pZEN31E in rice callus, heat shock 42 C 90 min; 81.1% without heat shock; 0% for pZEN30NC lacking transposase.

“CAGGGATGAAAGTAGGATGGGAAAATCCCGTACCGACCGTTATCGTATAACCGATTTTGTTAGTTTTATCCCGATCGATTTCGAACCCGAGGTAAAAAACGAAAACGGAACGGAAACGGGATATACAAAACGGTAAACGGAAACGGAAACGGTAGAGCTAGTTTCCCGACCGTTTCACCGGGATCCCGTTTTTAATCGGGATGATCCCGTTTCGTTACCGTATTTTCTAATTCGGGATGACTGCAATATGGCCAGCTCCAACTCCCATCCATAACCACTGAGGCCCAGCCCATGTAAGAATGCTCCAGATTTATATGGATTTTATCTATGTTTAATTAAGACTTGTGTTTACAATTTTTTATATTTGTTTTTAAGTTTTGAATATATGTTTTCATGTGTGATTTTACCGAACAAAAATACCGGTTCCCGTCCGATTTCGACTTTAACCCGACCGGATCGTATCGGTTTTCGATTACCGTATTTATCCCGTTCGTTTTCGTTACCGGTATATCCCGTTTTCGTTTCCGTCCCGCAAGTTAAATATGAAAATGAAAACGGTAGAGGTATTTTACCGACCGTTACCGACCGTTTTCATCCCTA (double strand)”: the activity (% callus lines with excision) amounted to 95.1.

The values above are taken from US20220119828.
